Results published in PMC6881179.

Key:
Experiment in all cases: SPR
[1] = target: BES17 transferrin receptor (glycosylated heterodimer of BES17 ESAG6 and BES17 ESAG7) (Trypanosoma brucei) (UniProt Q8WPU1)
[2] = target: BES1e6BES17e7 chimera (BES1 ESAG6 with BES17 ESAG7) (Trypanosoma brucei) (UniProt Q8WPU1)
[3] = target: BES17e6BES1e7 chimera (BES17 ESAG6 with BES1 ESAG7) (Trypanosoma brucei) (UniProt Q8WPU1)
[4] = target: BES1 transferrin receptor (glycosylated heterodimer of BES1 ESAG6 and BES1 ESAG7) (Trypanosoma brucei) (UniProt Q8WPU1)

Substance	Kd [1] [nM]	Kd [2] [nM]	Kd [3] [nM]	Kd [4] [nM]
human holo-transferrin (from UniProt P02787 20-698) (ligand)	13.1	243	353	
cow transferrin (from UniProt Q29443 20-704) (ligand)				80.1
